Assay results reported in paper PMC3949515, “Multi-PAS domain-mediated protein oligomerization of PpsR from Rhodobacter sphaeroides” (Acta Crystallographica Section D: Biological Crystallography, 2014).
Where “and” joins values, the source holds several entries; their conditions need not be identical. Equal values may be shown once. One block for each molecule: values may come before it.

What was measured:
[1] = biological target: PpsR_(Q-PAS1), PpsR variant comprising the glutamine-rich linker (Q-linker) and the PAS1 domain (Rhodobacter sphaeroides) (UniProt Q9S301); assay: crystal structure; PpsR_(Q-PAS1), 8 mg/ml, 100 mM sodium cacodylate pH 6.5, 1.9% PEG 3000, 200 mM MgCl2, 293 K; one chain in the asymmetric unit, dimer by a crystallographic dyad; 1.65 Å
[2] = biological target: PpsR_(N-Q-PAS1), PpsR variant comprising the N-terminal domain, the Q-linker and the PAS1 domain (Rhodobacter sphaeroides) (UniProt Q9S301); assay: MST; dimer to monomers, KD based on the total monomer concentration; Monolith NT.115, unlabelled protein titrated (1:2 dilution series) into NT-647-labelled protein (10 nM for PpsR_(N-Q-PAS1)), buffer D, three experiments averaged
[3] = biological target: PpsR_(N-Q-PAS1), PpsR variant comprising the N-terminal domain, the Q-linker and the PAS1 domain (Rhodobacter sphaeroides) (UniProt Q9S301); assay: crystal structure; PpsR_(N-Q-PAS1), 10 mg/ml, 1.6 M ammonium sulfate, 100 mM MES pH 6.5, 10 mM L-cysteine, 4% 1,4-dioxane, 293 K; dimer in the asymmetric unit; 2.2 Å
[4] = biological target: PpsR_(N-Q-PAS1), PpsR variant comprising the N-terminal domain, the Q-linker and the PAS1 domain (Rhodobacter sphaeroides) (UniProt Q9S301); assay: SEC-MALS; Superdex 200 10/300 GL, buffer D (10 mM CHES pH 9.0, 150 mM NaCl, 5% glycerol), 400 µl of a 20 µM protein solution loaded, 0.5 ml/min
[5] = biological target: the molecule itself; assay: MST; tetramer to dimers, KD based on the total dimer concentration; Monolith NT.115, unlabelled protein titrated (1:2 dilution series) into 12.5 nM NT-647-labelled protein, buffer D, three experiments averaged
[6] = biological target: the molecule itself; assay: crystal structure; PpsR_(ΔHTH), 30 mg/ml, 1 M ammonium sulfate, 100 mM Tris-HCl pH 8.5, 6% xylitol, 12% glycerol, 1% dioxane, 293 K; four chains in the asymmetric unit, octamer by a crystallographic twofold axis; 2.8 Å
[7] = biological target: the molecule itself; assay: SEC-MALS; Superdex 200 10/300 GL, buffer D (10 mM CHES pH 9.0, 150 mM NaCl, 5% glycerol), 400 µl of a 20 µM protein solution loaded, 0.5 ml/min

stoichiometry N [1]: 2
Molecule: PpsR_(Q-PAS1), PpsR variant comprising the glutamine-rich linker (Q-linker) and the PAS1 domain (from UniProt Q9S301 123-257) (domain or fragment)

Kd [2]: 250 nM
stoichiometry N [3]: 2
stoichiometry N [4]: 2
Molecule: PpsR_(N-Q-PAS1), PpsR variant comprising the N-terminal domain, the Q-linker and the PAS1 domain (from UniProt Q9S301 1-257) (domain or fragment)

B1: PpsR_(ΔHTH), triple PAS domain construct of PpsR (N-domain, Q-linker, PAS1, PAS2) lacking the C-terminal HTH motif (domain or fragment, Rhodobacter sphaeroides, UniProt Q9S301 1-379, looked up)
chain: MLAGGSLPSLAPDLVRDLIATAADISLLVSQEGVVREVMANPHHPSFGQLSEWEGRPLEEVLTAESVAKFRLRSEGLEPGRGSVAVELNHIDPRSFEFPIRYILHRLPADRSILMLGRDLRPIAEVQQQLVAAQLAMERDYETQREMETRYRVVLDVSRDPMVLVSMSTGRIVDLNSAAGLLLGGVRQDLLGAAIAQEFEGRRRGEFMETMTNLAATESAAPVEVLARRSQKRLLVVPRVFRAAGERLLLCQIDPADATQPVGDELSENLARLYHEGVDGIVFSDADGTIRGANEAFLNMTDSSSLAAIRGRSIADFLARGSVDLRVLIDSVRRTGQLRLYATRLTTDFAGQIAAEISATWLDDRERPLLVLVVRDTSR
notes: PpsR from Rhodobacter sphaeroides, UniProt Q9S301; the model ends at 378 with the C-terminal arginine disordered; The forward primer 1_fw introduces ATG GGA before the first codon of PpsR; In MST one copy was randomly labelled at amines with NT-647; A selenomethionine-substituted form was also crystallized for phasing; source: E. coli BL21 (DE3), purified (Ni-NTA, TEV cleavage, Superdex 200); …
Kd [5]: 900 ± 200 nM
stoichiometry N [6]: 4 and 8
stoichiometry N [7]: 2

B2: PpsR_(full), full-length transcription factor PpsR (photopigment suppression) from Rhodobacter sphaeroides (natural protein, UniProt Q9S301 1-464, looked up)
chain: MLAGGSLPSLAPDLVRDLIATAADISLLVSQEGVVREVMANPHHPSFGQLSEWEGRPLEEVLTAESVAKFRLRSEGLEPGRGSVAVELNHIDPRSFEFPIRYILHRLPADRSILMLGRDLRPIAEVQQQLVAAQLAMERDYETQREMETRYRVVLDVSRDPMVLVSMSTGRIVDLNSAAGLLLGGVRQDLLGAAIAQEFEGRRRGEFMETMTNLAATESAAPVEVLARRSQKRLLVVPRVFRAAGERLLLCQIDPADATQPVGDELSENLARLYHEGVDGIVFSDADGTIRGANEAFLNMTDSSSLAAIRGRSIADFLARGSVDLRVLIDSVRRTGQLRLYATRLTTDFAGQIAAEISATWLDDRERPLLVLVVRDTSRADTMRRPVPATGVIDEPARNVMELVGNSTLKDIVAETTDVVEKMCIETALELTRNNRVAAAEMLSLSRQSLYVKLRKFGLLNKDE
notes: PpsR from Rhodobacter sphaeroides, UniProt Q9S301, full-length protein; gene synthesized with codon optimization for E. coli, cloned in pETM-11; In MST one copy was randomly labelled at amine positions with NT-647 red fluorescent dye (about one label per monomer); In solution a dimer-tetramer equilibrium; source: E. coli BL21 (DE3), purified (Ni-NTA, TEV cleavage, HiTrap Heparin, Superdex 200); …
Kd [5]: 900 ± 300 nM
